Experimental data reported in US11202837B2, “Biological materials and uses thereof” (Antikor Biopharma Limited, priority 2014, dated 2021).
Where two headings read alike, the source gives them in different places.

How the values were obtained:
[1] = Aggregation by HPLC size-exclusion chromatography; assay type: physicochemical; details: for aggregation by HPLC-SEC (in words): purified or analysed conjugate vs unconjugated antibody
Protocol: Aggregation can be tested by analytical size-exclusion HPLC measuring the percentage of high molecular weight material compared to the conjugate eluting at a retention time characteristic of a monomeric conjugate.
Typically, 20 μg of protein was injected for analytical runs and 300 μg for semi-preparative runs.

HER2 = HER2 (Homo sapiens, UniProt P04626); assay: Biacore SPR binding to immobilised HER2; details: immobilised HER2
Protocol: The binding affinity against immobilised HER2 target antigen was determined by Biacore SPR compared to the unmodified scFv on a Biacore T200. A standard amine-coupling method was used to prepare all Biacore surfaces (CM5 or CM3), as follows. Flow cells were activated individually by injecting a freshly mixed solution of 0.2M EDC in 0.05 M NHS at 30 μl/min. […] Excess NHS ester was deactivated using a 1 M ethanolamine solution. To measure the kinetics of the antibody and conjugate on the HER2 chip, a […] serial dilution (typically at 5, 2.5, 1.25, 0.6 μg/ml or lower for free antibody and 20, 10, 5, 2.5 μg/ml for the conjugates), was injected for 160 s at 30 μl/min, allowing a 900-s dissociation phase. The dissociation time was extended to 3600 s for the highest concentration. Surfaces were regenerated with 45 s injection of MgCl2 8M.
To evaluate binding ability, manual runs were performed at 30 μl/min with a 60 s injection of the desired compound followed by 60 s waiting time and a 45 s of regeneration at 10 μl/min using MgCl2 8M. All data was analysed using the software, BIAEvaluation.

NCI-N87 cells = assay: Cell killing assay (MTS), NCI-N87 cells; assay type: cell-based, human; details: NCI-N874 Cells (HER2++), 96 hours, Table 49
Protocol: (§1) The cells were recovered by centrifugation (2 min, 2000 rpm), the supernatant was discarded, and the cells were resuspended in complete McCoy's 5A (5 ml). The cells were then counted using a haemocytometer and diluted accordingly. They were plated at 5000 cells/well (200 μl) using attachment factor and incubated overnight at 37° C., 5% CO2 in a humidified atmosphere. U87 is a non-HER2 expressing glioblastoma cell line [Zitron I M et al (2013) BMC Cancer 13:83] and was grown in a similar way, plated at 1000 cells/well (using DMEM media). BT474 is a HER2 expressing breast cancer cell line [Brockhoff G et al (2007) Cell Prolif 40:488-507] and was grown in a similar way, plated at 7500 cells/well (using RPMI media). NCI-N87 is a HER2 expressing gastric cancer cell line [Yamashita-Kashima Y et al (2013) Oncol. Rep 30:1087-93] and was grown in a similar way, plated at 7500 cells/well (using RPMI media).
(§2) The cells were exposed to the various ADCs diluted in complete media for 96 hours at 37° C., 5% CO2 in a humidified atmosphere. Cell viability was measured using the Promega Aqueous Cell-titre-96™ aqueous one solution cell proliferation kit (MTS reagent) according to manufacturer's instructions. Briefly, the media was removed and 100 μl of complete phenol red free media, pre-combined with MTS reagent, was added to the cells (20 μl of reagent per 100 μl of media). The plates were read on an ELISA plate reader at 490 nm after a 2 hr incubation in the dark (5% CO2, 37° C.).
(§3) The data (absorption units) were converted to % cell survival by using the untreated controls as the 100% cell survival and the Triton X-100 controls as the 100% cell death. The average absorption value for the latter was subtracted from all the rest of the data in order to get a suitable baseline. The averages were converted to survival and standard error values were obtained for each n value (as a % cell survival). […] Experiments were repeated at least 3 times for each compound tested and a set or an average of the data was plotted and fitted to obtain a dose-response curve.

BT474 cells = assay: Cell killing assay (MTS), BT474 cells; assay type: cell-based, human; details: BT474 Cells (HER2++), 96 hours; for IC50: read-out: IC50
Protocol: as §1, §2, §3

SKBr3 cells = assay: Cell killing assay (MTS), SKBr3 cells; assay type: cell-based, human; details: SKBr3 Cells (HER2+++), 96 hours; for IC50: read-out: IC50
Protocol: (§4) SKBr3, human breast cancer cell line, high HER2 expression levels, up to 1,000,000 receptors per cell [Lazar G A, et al Proc Natl Acad Sci USA. […] When confluency was 70-80%, cells were washed with PBS (2×10 ml) and incubated with trypsin for 5-7 min. Complete media was added and the cells were resuspended by pipetting. The cells were recovered by centrifugation (2 min, 2000 rpm), the supernatant was discarded, and the cells were resuspended in complete DMEM (5 ml). The cells were then counted using a haemocytometer and diluted accordingly. They were plated at 4500 cells/well (200 μl) using attachment factor and incubated overnight at 37° C., 5% CO2 in a humidified atmosphere. U87 is a non-HER2 expressing glioblastoma cell line and was grown in a similar way, plated at 1000 cells/well.
as §2, with “The cells were exposed to the various ADCs diluted in complete media for 96 hours at 37° C., 5% CO2 in a humidified atmosphere.” left out, “kit” for “kit (MTS reagent)”
as §3, with “dose response” for “dose-response”
as §1
as §2, with “The cells were exposed to the various ADCs diluted in complete media for 96 hours at 37° C., 5% CO2 in a humidified atmosphere.” left out
(§5) The data (absorption units) were converted to % cell survival by using the untreated controls as the 100% cell survival and the Triton X-100 controls as the 100% cell death. The average absorption value for the latter was subtracted from all the rest of the data in order to get a suitable baseline. The averages were converted to survival and standard error values were obtained for each n value (as a % cell survival).

U87 cells = assay: Cell killing assay (MTS), U87 cells; assay type: cell-based; details: U87 Cells (HER2−), 96 hours, Table 46
Protocol: as §4
as §2, with “kit” for “kit (MTS reagent)”
as §3, with “dose response” for “dose-response”
as §1, §2, §5

B1: scFv (TCT1067)-Acetate DAR 16 (conjugate)
scFv: SGSGGSGQVQLVQSGAEVKKPGESLKISCKGSGYSFTSYWIAWVRQMPGKGLEYMGLIYPGDSDTKYSPSFQGQVTISVDKSVSTAYLQWSSLKPSDSAVYFCARHDVGYCTDRTCAAWPEWLGVWGQGTLVTVSSGGGGSGGGGSGGGGSQSVLTQPPSVSAAPGQKVTISCSGSSSNIGNNYVSWYQQLPGTAPKLLIYGHTNRPAGVPDRFSGSKSGTSASLAISGFRSEDEADYYCASWDYTLSGWVFGGGTKLTVLMASMTGGQQMG
For B1, the “aggregation by HPLC-SEC (in words)” value [1] was “no aggregation”, the association rate (HER2) was 3.63e+06 M⁻¹ s⁻¹ and the dissociation rate (HER2) was 7.64e-05 s⁻¹.

B2: scFv (TCT1067)-Auristatin F-C5, DAR 2.7 (conjugate)
scFv: B1 scFv
With B2 the “IC50 μg/ml” value (NCI-N87 cells) was 0.00087 µg/mL, the IC50 (NCI-N87 cells) was 0.0311 nM and the “IC50 μg/ml” value (BT474 cells; Table 49) was 0.00115 µg/mL. The IC50 (BT474 cells; Table 49) was 0.0392 nM, the “IC50 μg/ml” value (SKBr3 cells; Table 49) was 0.00089 µg/mL and the IC50 (SKBr3 cells; Table 49) was 0.0317 nM.

B3: scFv (TCT1067)-DM1-dPEG12 DAR 8 (conjugate)
scFv: B1 scFv
For B3, the “aggregation by HPLC-SEC” value [1] was 4% aggregates, the association rate (HER2) was 13200 M⁻¹ s⁻¹ and the dissociation rate (HER2) was 3.28e-05 s⁻¹.

B4: scFv (TCT1067)-DM1-dPEG12 DAR 7 (conjugate)
scFv: B1 scFv
In the case of B4, the “aggregation by HPLC-SEC” value [1] is reported as 1% aggregates, the association rate (HER2) is reported as 19500 M⁻¹ s⁻¹ and the dissociation rate (HER2) is reported as 2.7e-05 s⁻¹.

B5: scFv (TCT1067)-MMAF-C5, DAR 6.4 (conjugate)
scFv: B1 scFv
With B5 the “IC50 μg/ml” value (U87 cells) was >5 µg/mL, the “IC50 μg/ml” value (BT474 cells; Table 46) was 0.008 µg/mL and the IC50 (BT474 cells; Table 46) was 0.286 nM. The “IC50 μg/ml” value (SKBr3 cells; Table 46) was 0.007 µg/mL and the IC50 (SKBr3 cells; Table 46) was 0.25 nM.

B6: scFv (TCT1067)-Auristatin F-C5, DAR 6.2 (conjugate)
scFv: B1 scFv
For B6, the “IC50 μg/ml” value (NCI-N87 cells) was 0.00036 µg/mL, the IC50 (NCI-N87 cells) was 0.0129 nM and the “IC50 μg/ml” value (BT474 cells; Table 49) was 0.00112 µg/mL. The IC50 (BT474 cells; Table 49) was 0.0399 nM, the “IC50 μg/ml” value (SKBr3 cells; Table 49) was 0.00101 µg/mL and the IC50 (SKBr3 cells; Table 49) was 0.0361 nM.

B7: scFv (TCT1067)-P5-C5 DAR 10.9 (conjugate)
scFv: B1 scFv
For B7, the “aggregation by HPLC-SEC (in words)” value [1] was “no aggregation” and the dissociation rate (HER2) was 7.13e-05 s⁻¹.

B8: scFv (TCT1067)-Auristatin F-C5, DAR 11.8 (conjugate)
scFv: B1 scFv
In the case of B8, the “IC50 μg/ml” value (NCI-N87 cells) is reported as 0.0087 µg/mL, the IC50 (NCI-N87 cells) is reported as 0.31 nM and the “IC50 μg/ml” value (BT474 cells; Table 49) is reported as 0.01082 µg/mL. The IC50 (BT474 cells; Table 49) was 0.386 nM, the “IC50 μg/ml” value (SKBr3 cells; Table 49) was 0.00844 µg/mL and the IC50 (SKBr3 cells; Table 49) was 0.299 nM.

B9: scFv (TCT)-Acetate DAR 15 (conjugate)
scFv: SGSGGSGQVQLVQSGAEVKKPGESLKISCKGSGYSFTSYWIAWVRQMPGKGLEYMGLIYPGDSDTKYSPSFQGQVTISVDKSVSTAYLQWSSLKPSDSAVYFCARHDVGYCSSSNCAAWPEYFQHWGQGTLVTVSSGGGGSGGGGSGGGGSQSVLTQPPSVSAAPGQKVTISCSGSSSNIGNNYVSWYQQLPGTAPKLLIYGHTNRPAGVPDRFSGSKSGTSASLAISGFRSEDEADYYCAAWDDSLSGWVFGGGTKLTVLMASMTGGQQMG
With B9 the “aggregation by HPLC-SEC (in words)” value [1] was “no aggregation”, the association rate (HER2) was 5.93e+06 M⁻¹ s⁻¹ and the dissociation rate (HER2) was 0.0171 s⁻¹.

B10: scFv (TCT)-MMAF-C5 1 DAR 5.6 (conjugate)
scFv: B9 scFv
With B10 the “aggregation by HPLC-SEC (in words)” value [1] was “no aggregation”, the association rate (HER2) was 770000 M⁻¹ s⁻¹ and the dissociation rate (HER2) was 0.0042 s⁻¹.

B11: scFv (TCT)-MMAF-C5 DAR 6.8 (conjugate)
scFv: B9 scFv
For B11, the “aggregation by HPLC-SEC” value [1] was 17%, the “aggregation by HPLC-SEC (in words)” value [1] was “no aggregation” and the association rate (HER2) was 1.2e+06 M⁻¹ s⁻¹. The dissociation rate (HER2) was 0.0042 s⁻¹.
